Legend:
HuR/ELAVL1 = biological target: T1, HuR/ELAVL1 (Homo sapiens, UniProt Q15717); assay: AlphaScreen ([…]) and REMSA ([…]) of rHuR-RNA complex formation; assay type: biochemical
T1 construct: full-length human HuR with C-terminal Myc-His tag (rHuR), purified from HEK293T cells

rHuR (HuR-Myc-His) [1] = biological target: T2, rHuR (HuR-Myc-His) (Homo sapiens, UniProt Q15717 1-326); assay: AlphaScreen saturation binding; AlphaScreen: 25 mM HEPES pH 7.4, 100 mM NaCl, 0.1% BSA, room temperature; REMSA: 20 mM HEPES pH 7.5, 50 mM KCl, 0.5 ug BSA, 0.25% glycerol, room temperature, 6% native gel 0.5X TBE at 4 C; conditions: protein: recombinant; tags: C-terminal c-Myc and His6; label: 5'-biotin; single strand
rHuR (HuR-Myc-His) [2] = biological target: T2, rHuR (HuR-Myc-His); assay: AlphaScreen saturation binding; repeat alongside Bi-COX; AlphaScreen: 25 mM HEPES pH 7.4, 100 mM NaCl, 0.1% BSA, room temperature; REMSA: 20 mM HEPES pH 7.5, 50 mM KCl, 0.5 ug BSA, 0.25% glycerol, room temperature, 6% native gel 0.5X TBE at 4 C; conditions: protein: recombinant; tags: C-terminal c-Myc and His6; label: 5'-biotin; single strand
rTTP (His-Strep-TTP) = biological target: T3, rTTP (His-Strep-TTP) (Mus musculus, UniProt P22893 1-319); assay: AlphaScreen competition; rTTP displacing 1 nM rHuR from 50 nM Bi-TNF; AlphaScreen: 25 mM HEPES pH 7.4, 100 mM NaCl, 0.1% BSA, room temperature; REMSA: 20 mM HEPES pH 7.5, 50 mM KCl, 0.5 ug BSA, 0.25% glycerol, room temperature, 6% native gel 0.5X TBE at 4 C; conditions: protein: recombinant; tags: His-Strep; label: 5'-biotin; single strand
T3 sequence: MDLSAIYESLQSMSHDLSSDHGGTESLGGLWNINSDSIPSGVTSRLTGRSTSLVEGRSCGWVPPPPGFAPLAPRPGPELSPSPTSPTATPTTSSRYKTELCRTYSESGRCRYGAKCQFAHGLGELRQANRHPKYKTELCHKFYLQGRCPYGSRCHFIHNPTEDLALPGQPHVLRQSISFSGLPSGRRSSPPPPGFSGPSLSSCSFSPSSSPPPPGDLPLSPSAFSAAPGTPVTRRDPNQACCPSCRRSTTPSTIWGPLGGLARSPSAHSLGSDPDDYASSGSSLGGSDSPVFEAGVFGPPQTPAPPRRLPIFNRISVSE

rHuR (HuR-Myc-His) [3] = biological target: T2, rHuR (HuR-Myc-His); assay: AlphaScreen competition; versus 50 nM Bi-TNF, 1 nM rHuR; AlphaScreen: 25 mM HEPES pH 7.4, 100 mM NaCl, 0.1% BSA, room temperature; REMSA: 20 mM HEPES pH 7.5, 50 mM KCl, 0.5 ug BSA, 0.25% glycerol, room temperature, 6% native gel 0.5X TBE at 4 C; conditions: protein: recombinant; tags: C-terminal c-Myc and His6; single strand
rHuR (HuR-Myc-His) [4] = biological target: T2, rHuR (HuR-Myc-His); assay: AlphaScreen saturation binding; signal near background, probe 0-100 nM; AlphaScreen: 25 mM HEPES pH 7.4, 100 mM NaCl, 0.1% BSA, room temperature; REMSA: 20 mM HEPES pH 7.5, 50 mM KCl, 0.5 ug BSA, 0.25% glycerol, room temperature, 6% native gel 0.5X TBE at 4 C; conditions: protein: recombinant; tags: C-terminal c-Myc and His6; label: 5'-biotin; single strand

T2 sequence (Q15717 whole entry): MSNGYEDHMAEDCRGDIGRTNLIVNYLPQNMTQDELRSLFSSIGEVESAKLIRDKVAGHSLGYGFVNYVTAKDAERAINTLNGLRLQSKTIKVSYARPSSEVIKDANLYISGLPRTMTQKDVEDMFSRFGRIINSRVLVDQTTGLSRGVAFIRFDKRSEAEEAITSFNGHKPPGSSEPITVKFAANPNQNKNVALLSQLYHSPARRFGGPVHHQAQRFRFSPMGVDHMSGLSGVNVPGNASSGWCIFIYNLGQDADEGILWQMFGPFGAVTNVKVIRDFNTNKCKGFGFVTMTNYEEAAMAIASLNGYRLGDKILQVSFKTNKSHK
T1 sequence (Q15717 2-326): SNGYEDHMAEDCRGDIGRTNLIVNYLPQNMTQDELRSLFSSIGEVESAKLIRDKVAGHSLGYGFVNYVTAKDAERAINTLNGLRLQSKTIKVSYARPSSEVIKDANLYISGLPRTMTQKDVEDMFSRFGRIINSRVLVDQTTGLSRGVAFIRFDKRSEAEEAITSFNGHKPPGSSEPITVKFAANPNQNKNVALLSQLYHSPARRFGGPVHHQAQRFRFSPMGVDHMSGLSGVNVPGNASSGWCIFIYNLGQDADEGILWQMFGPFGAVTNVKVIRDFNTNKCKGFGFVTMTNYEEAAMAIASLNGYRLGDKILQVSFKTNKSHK

Molecule: O=C1c2c(O)ccc(O)c2C(=O)c2c(NCCNCCO)ccc(NCCNCCO)c21 [compound 16, Mitoxantrone]
- AlphaScreen (25 nM) and REMSA (0.5 μM) of rHuR-RNA complex formation (HuR/ELAVL1): Mitoxantrone revealed to be a compound interfering with rHuR binding to Bi-TNF in both of our in vitro assays

Molecule: AUUAUUUAUUAUUUAUUUAUUAUUUA (ssRNA) [Bi-TNF]
- Kd (rHuR (HuR-Myc-His) [1]): 2.5 ± 0.6 nM
- Kd (rHuR (HuR-Myc-His) [2]): 2.75 nM
- Ki (rTTP (His-Strep-TTP)): 0.00176 ± 0.00041 nM

Molecule: UAUUAAUUUAAUUAUUUAAUAAUAUUU (ssRNA) [Bi-COX]
- Kd (rHuR (HuR-Myc-His) [1]): 4.58 ± 1.2 nM

Molecule: AUUAUUUAUUAUUUAUUUAUUAUUUA (ssRNA) [U-TNF]
- Ki (rHuR (HuR-Myc-His) [3]): 4.49 ± 1.1 nM

Molecule: ACCACCCACCACCCACCCACCACCCA (ssRNA) [Bi-TNFneg]
- binding result (rHuR (HuR-Myc-His) [4]): no binding

Source: paper PMC3741180, “A Novel High Throughput Biochemical Assay to Evaluate the HuR Protein-RNA Complex Formation” (PLoS ONE, 2013)
